Broadly, the pKd is the negative decadic logarithm of the Kd, by convention in mol/L. A higher pKd goes with a small Kd.

pKd: −log10 of the molar value.

For the assay, the target named is RAS-binding domain (RBD) of RAF1, RAF1-RBD (52–131) (Homo sapiens) (UniProt P04049). Kind of assay: ITC; GMPPNP-bound KRAS. The conditions noted are these: domain or fragment. (In general: In ITC the heat of successive injections is recorded.)

As for “KRAS (2–169), GMPPNP-bound (from UniProt P01116-2 2-169)”, the pKd was 6.66.

The values are drawn from PMC6642148.
